Patent publication US11541126B1, “Anti-ASGR1 antibody TLR8 agonist comprising conjugates and uses thereof” (Silverback Therapeutics, Inc., priority 2020, dated 2023)
Values belong to the molecule of their own block, whether it stands above or below them.

Legend:
rat ASGR1 = biological target: T1, rat ASGR1 (Rattus norvegicus, UniProt P02706); test: Cell binding to rat ASGR1 transiently expressed by CHO-S cells (GUAVA); details: in words
T1 construct: expressed in transfected cells; host or cells: CHO-S
T1 sequence (P02706 1-284): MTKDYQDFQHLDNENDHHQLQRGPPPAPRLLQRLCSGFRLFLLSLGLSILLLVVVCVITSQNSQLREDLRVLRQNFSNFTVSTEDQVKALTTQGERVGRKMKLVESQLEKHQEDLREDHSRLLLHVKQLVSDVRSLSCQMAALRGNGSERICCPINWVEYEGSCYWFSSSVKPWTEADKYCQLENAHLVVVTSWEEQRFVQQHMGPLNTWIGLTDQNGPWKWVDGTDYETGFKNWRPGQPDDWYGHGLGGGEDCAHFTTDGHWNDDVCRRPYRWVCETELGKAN
Description: Anti-human ASGR1 antibodies of this disclosure were examined for cross-reactivity with Cynomolgus macaque and rat ASGR1. Briefly, sequence encoding Cynomolgus macaque or rat ASGR1 was transiently transfected into CHO-S cells. Transfected cells were before performing cell binding assay. A total of about 1.5×10^4 transfected cells/well were added to 96-well V-bottom assay plate, incubated at 37° C., 5% CO2 for 48-72 hours, and then washed with culture medium before adding 100 μl of each ASGR1 antibody at different concentrations starting from 100 nM and 3-fold dilutions to a total of eight wells. The cells with antibody were incubated for 40 minutes at 4° C., then washed three times with 200 μl of fresh culture medium. To each well was added 50 μl PE conjugated goat anti-human Fc (SouthemBiotech) at 1:200 dilution in culture medium and then incubated at 4° C. for 20 minutes. After washing the plate once, the treated cells were resuspended in 200 μl culture medium and then the stained cells were analyzed on GUAVA® using Incyte software.

rat CLEC10A ECD = biological target: T2, rat CLEC10A ECD (Rattus norvegicus, UniProt P49301); test: OCTET avidity binding to immobilized rat CLEC10A ECD; details: for Binding signal to rat CLEC10A ECD: in words; for Response, binding to rat CLEC10A ECD: test antibody at 25 μg/mL
T2 construct: His-tagged rat CLEC10A ECD (R&D Systems) was immobilized to OCTET® Penta-His biosensors; purchased R&D Systems
T2 sequence (P49301 59-306 limits assumed): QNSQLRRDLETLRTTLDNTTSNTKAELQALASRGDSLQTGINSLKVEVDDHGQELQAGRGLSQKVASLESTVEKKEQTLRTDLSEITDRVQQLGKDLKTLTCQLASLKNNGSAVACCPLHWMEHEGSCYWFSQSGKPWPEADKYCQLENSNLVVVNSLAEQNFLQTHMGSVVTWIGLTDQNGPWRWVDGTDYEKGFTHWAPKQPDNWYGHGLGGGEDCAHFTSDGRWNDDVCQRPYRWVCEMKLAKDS
Description: Analysis of binding to the rat CLEC10A ECD was performed using the OCTET® Red 96 instrument (ForteBio). His-tagged rat CLEC10A ECD (R&D Systems) was immobilized to OCTET® Penta-His biosensors and subjected to avidity binding of test antibodies in kinetics buffer (PBS+1% BSA+0.2% Tween20+0.9 mM CaCl2) at pH 7.4) in the following steps: (1) hydration of Penta-His biosensors in kinetics buffer (10 min); (2) regeneration and neutralization of Penta-His biosensor in 10 mM glycine-HCl (pH 1.5) and kinetics buffer, respectively in triplicate; (3) baseline acquisition (30 s); (4) immobilization of rat CLEC10A ECD to Penta-His biosensors at a concentration of 10 μg/mL (180 s); (5) second baseline acquisition (60 s); (6) association of test antibody at 25 μg/mL (60 s); (7) dissociation in kinetics buffer (60 s).
The interactions of test mAbs with rat CLEC10A ECD was analyzed using the OCTET® Data Analysis Software 9.0 (ForteBio).

[1] = biological target: T3, human ASGR1 extracellular domain (ECD) (Homo sapiens, UniProt P07306); test: Effect of calcium on binding to human ASGR1 ECD (OCTET); parameters: key to Ca^2+ Sensitivity during: Association / Ca^2+ Sensitivity during: Dissociation / Ca^2+ Sensitivity: N = No; Y = Yes
T3 sequence (P07306 62-291 limits assumed): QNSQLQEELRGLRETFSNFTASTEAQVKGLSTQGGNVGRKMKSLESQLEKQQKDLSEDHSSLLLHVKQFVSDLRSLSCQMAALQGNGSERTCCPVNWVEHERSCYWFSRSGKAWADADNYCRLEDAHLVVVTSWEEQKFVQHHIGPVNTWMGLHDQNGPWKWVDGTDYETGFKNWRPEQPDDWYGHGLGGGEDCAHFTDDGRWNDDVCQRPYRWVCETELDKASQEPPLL
Description: The ability of anti-human ASGR1 antibodies of this disclosure to bind to human ASGR1 in the presence or absence of calcium in binding buffer was examined. Briefly, ASGR1 antibodies were bound to immobilized human ASGR1 extracellular domain (ECD) at saturating levels and subsequently dissociated under three different conditions as follows: (a) binding and dissociation with buffer containing calcium (PBS+1% BSA+0.2% Tween20+0.9 mM CaCl2), pH 7.4); (b) binding with buffer containing calcium and dissociation with buffer lacking calcium; and (c) binding and dissociation with buffer lacking calcium. Analysis of ASGR1 antibody binding to human ASGR1 ECD was performed using the OCTET® Red 96 instrument and analyzed using the OCTET®Data Analysis Software 9.0 (ForteBio). His-tagged human ASGR1 ECD was immobilized to OCTET® Penta-His biosensors and ASGR1 antibodies were subjected to avidity binding under the conditions described above. Association with the ASGR1 ECD was measured by the rate of and increase in magnitude of signal response at a given antibody concentration. Dissociation from the ASGR1 ECD was measured as the rate of loss in signal upon removal of the antibody and further incubation with or without Ca^2+. […] Also tested were humanized antibodies hzH8K-1 and hzL4L-7.
Further analysis of the antibodies of this disclosure was to determine whether the presence of calcium was needed for binding (i.e., during association) of the antibodies to human ASGR1 ECD. […]

[2] = system: human PBMCs cultured with ASGR1-expressing tumor cell line HepG2; test: TNF-α production by human PBMC co-cultured with HepG2 (AlphaLISA); format: cell-based; details: PBMC:HepG2 5:1, 24 hours
Description: The effect on TNF-α production by human PBMCs co-cultured with ASGR1 expressing HepG2 tumor cells and in the presence of anti-ASGR1-TLR8 agonist conjugates was examined. An increase in TNF-α production by human PBMCs would indicate that myeloid cells are being activated. Briefly, peripheral blood mononuclear cells (PBMC) were isolated from normal human donor blood using SEPMATE™-50 PBMC Isolation Tubes ([…] Technologies) according to manufacturer's instructions. Isolated PBMC were cultured with the ASGR1-expressing tumor cell line HepG2 or the ASGR1-negative cell line HEK 293 at a 5:1 ratio in the presence of titrated concentrations of anti-ASGR1-TLR8 agonist conjugates (G2D-Compound 2.14, J4F-Compound 2.14, K2E-Compound 2.14, L4L-Compound 2.14, hzL4L-7-Compound 2.14, hzL4L-14-Compound 2.14, H8K-Compound 2.14, hzH8K-1-Compound 2.14, and hzH8K-10-Compound 2.14, as well as control conjugates comprised of ASGR1-mAb-A-Compound 2.14, ASGR1-mAb-B-Compound 2.14, ASGR1-mAb-C-Compound 2.14, anti-digoxin mAb-Compound 2.14, and unconjugated antibody controls). After 24 hours, cell-free supernatants were collected and stored at −80° C. prior to analysis. TNF-α levels in the cell-free supernatants were quantified using the TNF-α (human) AlphaLISA® Detection Kit (Perkin Elmer) according to manufacturer's instructions.

Cross-reactivity with rat ASGR1 (rat ASGR1): not rat cross-reactive | Binding signal to rat CLEC10A ECD (rat CLEC10A ECD): No observable binding signal | Ca^2+ Sensitivity [1]: N | Ca^2+ Sensitivity during: Association [1]: N | Ca^2+ Sensitivity during: Dissociation [1]: N | Sensitivity to calcium (difference in binding signal after dissociation >±10%) ([1]; in words): lacking sensitivity to calcium
B1: hzL4L-7: "humanized anti-ASGR1 antibodies hzL4L-7 and hzL4L-14 as compared to parent mouse anti-ASGR1 antibody L4L" (antibody, V domains shown)
VH: QVQLQESGPGLVKPSQTLSLTCTVSGYSISSDYAWNWIRQHPGKGLEWIGYISYSGSTRYNPSLKSRVTITRDTSKNQFSLKLSSVTAADTAVYYCARRYRYDEGYGMDYWGQGTTVTVSS
VL: DIQMTQSPSSLSASVGDRVTITCRASENIYSNLAWYQQKPGKAPKLLIYAATNLADGVPSRFSGSGSGTDFTLTISSLQPEDFATYYCQHFWGTPPWTFGGGTKVEIK
modifications: human IgG1/kappa constant regions; Synthetic sequence hzL4.6L VH G27Y, S70T, V71R; Synthetic sequence hzL4L VL
Response, binding to rat CLEC10A ECD (rat CLEC10A ECD): — (Antibodies tested with response of <0.02 nm were below the limit of detection (—)) | TNF-α production from human PBMCs [2]: more efficient at inducing TNF-α production as compared to the parent antibody conjugates

Cross-reactivity with rat ASGR1 (rat ASGR1): not rat cross-reactive | Binding signal to rat CLEC10A ECD (rat CLEC10A ECD): even less above background binding | Response, binding to rat CLEC10A ECD (rat CLEC10A ECD): 0.0495 nm | Ca^2+ Sensitivity [1]: N | Ca^2+ Sensitivity during: Association [1]: N | Ca^2+ Sensitivity during: Dissociation [1]: N
B2: hzH8K-1: "humanized anti-ASGR1 antibodies hzH8K-1 and hzH8K-10 as compared to parent mouse anti-ASGR1 antibody H8K" (antibody, V domains shown)
VH: QVQLQESGPGLVKPSQTLSLTCTVSGGSISSDYAWNWIRQHPGKGLEWIGYRSYRGSTSYNPSLKSRVTISVDTSKNQFSLKLSSVTAADTAVYYCARRGYYGSSSHWYFDVWGQGTTVTVSS
VL: DIQMTQSPSSLSASVGDRVTITCRASENIYSYLAWYQQKPGKAPKLLIYNAKTLAEGVPSRFSGSGSGTDFTLTISSLQPEDFATYYCQHHYGTPLTFGGGTKVEIK
modifications: Synthetic sequence hzH8K VH; Synthetic sequence hzH8K VL
TNF-α production from human PBMCs [2]: more efficient at inducing TNF-α production as compared to the parent antibody conjugates
